Columns and labels:
Assay in all cases: cell-based or functional assay
[1] = target: 배양된 세포에 의해 내인적으로 생성되는 TGF-β
[2] = target: 인간 TGF-β1 (human TGF-β1) (human) (UniProt P01137)
[3] = target: 인간 PD-1 (human PD-1) (human) (UniProt Q15116)
UniProt Q15116, sequence (Q15116 25-288): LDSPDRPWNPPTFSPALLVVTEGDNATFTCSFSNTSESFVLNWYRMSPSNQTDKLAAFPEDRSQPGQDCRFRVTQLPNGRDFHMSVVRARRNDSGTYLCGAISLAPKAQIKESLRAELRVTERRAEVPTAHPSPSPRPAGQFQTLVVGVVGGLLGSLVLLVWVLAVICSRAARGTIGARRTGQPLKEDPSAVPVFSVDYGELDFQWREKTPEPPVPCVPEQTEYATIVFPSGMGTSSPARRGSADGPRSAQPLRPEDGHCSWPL

UniProt P01137, sequence (P01137 279-390 limits assumed): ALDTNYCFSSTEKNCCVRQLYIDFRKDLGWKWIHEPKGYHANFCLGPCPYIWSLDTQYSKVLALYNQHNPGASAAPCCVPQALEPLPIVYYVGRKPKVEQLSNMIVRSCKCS

iTreg(FOXP3+CD25+) 백분율, 자극된 인간 CD4+ T 세포, 항체 50 ㎍/㎖, 외인성 TGF-β 없음 (항체 없이 15%) [1] [%]	NFAT-루시퍼라제 상대 발광 단위, 18 ng/㎖ TGF-β1로 12일 사전-처리된 Jurkat T 세포, 항-PD-1 Ab 존재 하 CHO-K1 공동-배양 (Ab 부재: 638866) [2] [RLU]	iTreg(CD25+FOXP3+) 백분율, 자극된 인간 CD4+ T 세포 + 2 ng/㎖ 인간 TGF-β1, 항체 200 ㎍/㎖ 및 6.25 ㎍/㎖ (항체 없이 55%) [2] [%]	NFAT-루시퍼라제 상대 발광 단위, 인간 PD-1 발현 Jurkat T 세포와 인간 PD-L1 발현 CHO-K1 세포의 24시간 공동-배양 [3] [RLU]	루시퍼라제 활성의 배율 변화, 항-hPD-1 항체 대 이소형 대조군 (234963 RLU) [3]	루시퍼라제 활성의 배율 변화, 항-hPD-1 항체 대 항체 부재 (206043 RLU) [3]	Substance
20	639000	60	–	–	–	항-HEL hIgG4 (인간 IgG4, 카파 항-계란 라이소자임 항체, Crown Bioscience) (antibody)
–	–	–	866000	3.69 배	4.2 배	마우스 항-hPD-1 IgG (BioLegend Cat#329912) (antibody)

— patent publication KR20190105077A
